Test results from patent EP4659808A2 (Sanofi, dated 2025).
Where a chain is given by its changes, count along the chain named.

Experiments:
[1] = target: T1, murine laminin G-like 5 domain (mLG-5) (mouse, UniProt Q60675 2932-3118, biotinylated (Avi tag) ; Biotinylated at the Avi tag (soluble biotinylated protein); the tag is left out of the letters.); assay: SPR (Biacore), mAb immobilized, mLG-5 in flow
T1 construct: Soluble protein from Expi293F cells; also called murine LG-5
T1 sequence: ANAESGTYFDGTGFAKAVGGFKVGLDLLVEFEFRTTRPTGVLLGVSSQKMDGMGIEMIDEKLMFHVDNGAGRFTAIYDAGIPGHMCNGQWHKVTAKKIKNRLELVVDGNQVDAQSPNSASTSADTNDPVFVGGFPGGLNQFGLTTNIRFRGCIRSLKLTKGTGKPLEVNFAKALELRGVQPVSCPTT

[2] = target: T2, murine beta-DG extracellular domain (mbeta-DG ECD) (mouse, UniProt Q62165 652-746); assay: SPR (Biacore), mAb immobilized, mBeta-DG in flow
T2 construct: range 652-746; Made in E. coli; also called mbeta-DG-HPC4; m βDG; not shown: C-terminal HPC4 tag
T2 sequence (looked up): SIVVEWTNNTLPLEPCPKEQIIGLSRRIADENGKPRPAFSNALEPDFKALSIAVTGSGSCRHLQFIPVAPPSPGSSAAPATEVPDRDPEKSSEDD

[3] = target: T3, Fabrazyme (agalsidase beta, Genzyme) (UniProt P06280 32-429); assay: dot blot
T3 construct: Negative control in the dot blots
T3 sequence (looked up): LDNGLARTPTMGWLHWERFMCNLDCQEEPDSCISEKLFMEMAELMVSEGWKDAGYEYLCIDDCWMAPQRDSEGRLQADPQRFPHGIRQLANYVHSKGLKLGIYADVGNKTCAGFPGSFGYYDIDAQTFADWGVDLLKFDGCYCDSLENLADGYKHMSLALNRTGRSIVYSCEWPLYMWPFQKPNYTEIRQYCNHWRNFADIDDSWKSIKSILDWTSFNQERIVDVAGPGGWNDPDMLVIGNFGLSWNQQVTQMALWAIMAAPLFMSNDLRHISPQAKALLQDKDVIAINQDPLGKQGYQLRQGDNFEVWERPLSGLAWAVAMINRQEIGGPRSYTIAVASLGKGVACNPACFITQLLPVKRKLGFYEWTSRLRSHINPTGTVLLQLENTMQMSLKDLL

[4] = target: T4, human beta-DG extracellular domain (human, UniProt Q14118 654-749, biotinylated in the Example 6 ELISA); assay: SPR (Biacore), mAb immobilized, hBeta-DG in flow
T4 construct: extracellular domain; Expression of the soluble human protein is not described; also called hBeta-DG; hbeta-DG
T4 sequence (looked up): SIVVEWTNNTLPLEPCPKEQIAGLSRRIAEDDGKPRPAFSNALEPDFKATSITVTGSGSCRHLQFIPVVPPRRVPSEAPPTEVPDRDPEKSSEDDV

[5] = target: T4, human beta-DG extracellular domain; assay: SPR (Biacore T100), antibody captured on Protein G chip, BDG in flow, 1:1 model

B1: anti-laminin-2 antibody derived from hybridoma clone C3 (antibody, V domains shown)
VH: DVMLVESGGDLVKPGGSLKLSCAASGFTFSSYTMSWVRQTPEKRLEWVASISSGGGNTYYPDSVKGRFTISRDNAKNNLYLQMSSLRSEDTALYYCARFDYGSSLDSWGQGTTLTVSS
VL: DIVLTQSPATLSVTPGDSVSLSCRASQSISNNLHWYQQKSHESPRLLIKYASQSISGIPSRFSGSGSGTDFTLSINSVETEDFGMYFCQQSKNWPRTFGGGTKLEIK
notes: Hybridoma-derived monoclonal antibody detected with anti-mouse IgG; Chimeric human IgG1/kappa versions were also made; also called C03; anti-laminin-2(C3)
- Kd [1]: 8.27 nM

B2: anti-beta-DG antibody derived from hybridoma clone AS30 (antibody, V domains shown)
VH: QIQLQQSGPELVKPGASVKMSCEASGFTFTDSVITWVKQRPGQGLEWIGEIYPGSGNFYYNEKFKGKATLTADKSSNTAYMQLRSLTSEDSAVYFCAMRRSSWGQGTLVTVSA
VL: DVLMTQTPLSLPVSLGDQASISCRSSQTIVHSNSKTYLEWYLQKPGQSPKLLIYKVSNRFSGVPDRFSGSGSGTDFTLKISRVEAEDLGVYYCFQGSHVPLTFGAGTKLELK
notes: detected with anti-mouse IgG
- Kd [2]: 1.48 nM
- koff [2]: 0.00113 s⁻¹
- kon [2]: 773000 M⁻¹ s⁻¹
- binding result [3]: no binding
- Kd [4]: 1.08 nM
- koff [4]: 0.000963 s⁻¹
- kon [4]: 890000 M⁻¹ s⁻¹

B3: anti-beta-DG antibody derived from hybridoma clone AS19 (antibody, V domains shown)
VH: B2 VH with I2V, E23K, T35S, P41T, N57S, F58I, S102Y
VL: B2 VL with T28S, S34G, K35N
notes: Hybridoma-derived monoclonal antibody detected with anti-mouse IgG; also called parental anti-beta-DG (clone AS19)
- binding result [3]: no binding

B4: triAb 3439 (bispecific antibody, human IgG1, kappa)
light 1: EIVLTQSPDFLSVTPKEKVTLTCRASQSISNNLHWYQQKSDQSPKLLIKYASQSISGIPSRFSGSGSGTDFTLTINSVEAEDAATYFCQQSKSWPRTFGGGTKLEIKDKTHTEIVLTQSPDFLSVTPGEKVTLTCRASQSISNYLHWYQQKSDQSPKLLIKYASQSISGVPSRFSGSGSGTDFTLTISSVEAEDFATYFCQQSKSWPRTFGGGTKLEIKDKTHTRTVAAPSVFIFPPSDEQLKSGTASVVCLLNNFYPREAKVQWKVDNALQSGNSQESVTEQDSKDSTYSLSSTLTLSKADYEKHKVYACEVTHQGLSSPVTKSFNRGEC
heavy 1: EVQLVESGGGLVQPGGSLRLSCAASGFTFSSYTMSWVRQAPGKGLEWVATISSSGDNTYYPDSVKGRFTISRDNSKNTLYLQMSSLRAEDTALYYCARFDYGSSLDSWGQGTTLTVSSDKTHTEVQLVESGGGLVKPGGSLRLSCAASGFTFSSYTMSWVRQAPGKGLEWVASISSSGSNTYYPDSVKGRFTISRDNAKNNLYLQMNSLRAEDTALYYCARFDYGSSLDSWGQGTLLTVSSDKTHTASTKGPSVFPLAPSSKSTSGGTAALGCLVKDYFPEPVTVSWNSGALTSGVHTFPAVLQSSGSLSSVVTVPSSSLGTQTYICNVNHKPSNTKVDKKVEPKSCDKTHTCPPCPAPELLGGPSVFLFPPKPKDTLYITREPEVTCVVVDVSHEDPEVKFNWYVDGVEVHNAKTKPREEQYNNASRVVSVLTVLHQDWLNGKEYKCKVSNKALPAPIEKTISKAKGQPREPQVYTLPPCRDELTKNQVSLWCLVKGFYPSDIAVEWESNGQPENNYKTTPPVLDSDGSFFKKLTVDKSRWQQGNVFSCSVMHEALHNHYTQKSLSLSPG
heavy 2: QVQLVQSGAEVVKPGSSVKVSCEASGFTFTDSVITWVRQRPGQGLEWIGEIYPGSGNFYYNEKFQGRVTITADKSTSTAYMELSSLRSEDTAVYFCAMRRSSWGQGTLVTVSSASTKGPSVFPLAPSSKSTSGGTAALGCLVKDYFPEPVTVSWNSGALTSGVHTFPAVLQSSGSLSSVVTVPSSSLGTQTYICNVNHKPSNTKVDKKVEPKSCDKTHTCPPCPAPELLGGPSVFLFPPKPKDTLYITREPEVTCVVVDVSHEDPEVKFNWYVDGVEVHNAKTKPREEQYNNASRVVSVLTVLHQDWLNGKEYKCKVSNKALPAPIEKTISKAKGQPREPQVCTLPPSRDELTKNQVSLSCAVKGFYPSDIAVEWESNGQPENNYKTTPPVLDSDGSFFLVSKLTVDKSRWQQGNVFSCSVMHEALHNRFTQKSLSLSPG
light 2: DVVMTQTPLSLSVTPGQPASISCKSSQTIVHSNSKTYLEWYLQKPGQSPQLLIYKVSSRFSGVPDRFSGSGSGTDFTLKISRVEAEDVGVYYCFQGSHVPLTFGQGTKLEIKRTVAAPSVFIFPPSDEQLKSGTASVVCLLNNFYPREAKVQWKVDNALQSGNSQESVTEQDSKDSTYSLSSTLTLSKADYEKHKVYACEVTHQGLSSPVTKSFNRGEC
- Kd [5]: 1.3 nM
- koff [5]: 0.004 s⁻¹
- kon [5]: 3.07e+06 M⁻¹ s⁻¹

B5: triAb 3429 (bispecific antibody, human IgG1, kappa)
light 1: EIVLTQSPDFLSVTPGEKVTLTCRASQSISNYLHWYQQKSDQSPKLLIKYASQSISGVPSRFSGSGSGTDFTLTISSVEAEDFATYFCQQSKSWPRTFGGGTKLEIKDKTHTEIVLTQSPDFLSVTPKEKVTLTCRASQSIGNNLHWYQQKSDQSPKLLIKYASQSISGIPSRFSGSGSGTDFTLTINSVEAEDAATYFCQQSKSWPRTFGGGTKLEIKDKTHTRTVAAPSVFIFPPSDEQLKSGTASVVCLLNNFYPREAKVQWKVDNALQSGNSQESVTEQDSKDSTYSLSSTLTLSKADYEKHKVYACEVTHQGLSSPVTKSFNRGEC
heavy 1: EVQLVESGGGLVKPGGSLRLSCAASGFTFSSYTMSWVRQAPGKGLEWVASISSSGSNTYYPDSVKGRFTISRDNAKNNLYLQMNSLRAEDTALYYCARFDYGSSLDSWGQGTLLTVSSDKTHTEVQLVESGGGLVQPGGSLRLSCAASGFTFSSYTMSWVRQAPGKGLEWVATISSSGDNTYYPDSVKGRFTISRDNSKNTLYLQMSSLRAEDTALYYCARFDYGSSLDSWGQGTTLTVSSDKTHTASTKGPSVFPLAPSSKSTSGGTAALGCLVKDYFPEPVTVSWNSGALTSGVHTFPAVLQSSGSLSSVVTVPSSSLGTQTYICNVNHKPSNTKVDKKVEPKSCDKTHTCPPCPAPELLGGPSVFLFPPKPKDTLYITREPEVTCVVVDVSHEDPEVKFNWYVDGVEVHNAKTKPREEQYNNASRVVSVLTVLHQDWLNGKEYKCKVSNKALPAPIEKTISKAKGQPREPQVYTLPPCRDELTKNQVSLWCLVKGFYPSDIAVEWESNGQPENNYKTTPPVLDSDGSFFKKLTVDKSRWQQGNVFSCSVMHEALHNHYTQKSLSLSPG
heavy 2: B4 heavy 2
light 2: B4 light 2
- Kd [5]: 1.9 nM
- koff [5]: 0.00404 s⁻¹
- kon [5]: 2.13e+06 M⁻¹ s⁻¹

B6: anti-beta-DG antibody phage display clone B04 (antibody, V domains shown)
VH: QVQLQQSGGGLVQPGGSLRLSCAASGFTFSSYAMSWVRQAPGKGLEWVSAISGSGGSTYYADSVKGRFTVSRDNSKNTLYLQMNSLRAEDTAVYYCARLGYCSSTSCYLSAFDIWGQGTMVTVSS
VL: EIVLTQSPSTLSASVGDRVTITCRASQSISSWLAWYQQKPGKAPKLLIYDASSLESGVPSRFSGSGSGTEFTLTISSLQPDDFATYYCQQYNSYPLTFGGGTKVEIK
notes: Phage display clone
- Kd [4]: 2.57 nM

B7: anti-beta-DG antibody derived from phage display clone B06 (antibody, V domains shown)
VH: QIQLVQSGAEVKKPGKSLKIACKGSGYSFSNYWIGWVRQMPGKGLEWMGIIYPGDSDTRYSPSFHGQVTISADKSISTAYLQWSSLKASDTAMYYCARGVIINGTTSGFDYWGQGTLVIVSS
VL: ETTLTQSPATLSVSPGERATLSCRASQSVSSNLAWYQQKPGQAPRLLMYGASTRATGIPARFSGSGSGTEFTLTISSLQSEDFAVYYCQHYNNLPLTFGGGTKVDLK
notes: Phage display clone; also called B6
- Kd [2]: 162 nM
- koff [2]: 0.00232 s⁻¹
- kon [2]: 14300 M⁻¹ s⁻¹
- Kd [4]: 2.36 nM
- koff [4]: 0.00216 s⁻¹
- kon [4]: 968000 M⁻¹ s⁻¹
